Results as given in US20100098630A1, “Phenazine and Quinoxaline Substituted Amino Acids and Polypeptides” (AMBRX, INC., priority 2006, published 2010).

Molecular target: T1, GH receptor-producing cells (Homo sapiens, UniProt P10912)
T1 sequence (P10912 19-638): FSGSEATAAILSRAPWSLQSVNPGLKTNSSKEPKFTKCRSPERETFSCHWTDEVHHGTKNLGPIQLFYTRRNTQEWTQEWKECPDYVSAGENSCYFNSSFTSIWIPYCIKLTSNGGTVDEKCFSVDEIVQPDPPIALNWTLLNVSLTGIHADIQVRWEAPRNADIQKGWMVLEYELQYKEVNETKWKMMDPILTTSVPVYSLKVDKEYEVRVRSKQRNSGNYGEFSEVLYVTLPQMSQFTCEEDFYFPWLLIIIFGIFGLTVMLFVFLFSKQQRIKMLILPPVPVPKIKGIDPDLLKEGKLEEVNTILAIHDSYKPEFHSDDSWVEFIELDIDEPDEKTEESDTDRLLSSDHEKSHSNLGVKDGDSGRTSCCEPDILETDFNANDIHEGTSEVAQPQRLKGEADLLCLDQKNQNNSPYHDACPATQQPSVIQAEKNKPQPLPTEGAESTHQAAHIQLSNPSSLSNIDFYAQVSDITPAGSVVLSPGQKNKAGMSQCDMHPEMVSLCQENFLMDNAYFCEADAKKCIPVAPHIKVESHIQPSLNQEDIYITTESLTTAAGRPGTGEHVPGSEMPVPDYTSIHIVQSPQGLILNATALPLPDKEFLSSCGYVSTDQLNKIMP
Experiment: Cell binding assays (competition with 125I-GH)
Conditions: unlabeled competitor, 0° C., 90 minutes
Procedure: Cells are then resuspended and layered over 200 μl ice cold FCS in a 350 μl plastic centrifuge tube and centrifuged (1000 g; […]). The pellet is collected by cutting off the end of the tube and pellet and supernatant counted separately in a gamma counter (Packard).
Specific binding (cpm) is determined as total binding in the absence of a competitor (mean of duplicates) minus binding (cpm) in the presence of 100-fold excess of unlabeled GH (non-specific binding). The non-specific binding is measured for each of the cell types used.

GM-CSF: granulocyte-macrophage colony stimulating factor, negative control
inhibition of 125I-GH binding: not
